Test results published in publication PMC7190724, “Improved GPCR ligands from nanobody tethering” (Nature Communications, 2020).

Biological target: PTHR1_(YFPΔECD)

Q: VHHGFP-PTH(1-9) was tested. Which cAMP response (cAMP-activated luciferase luminescence) at the highest concentration tested, 100 nM, against the maximal response observed; precise EC50 could not be obtained (% of the maximal response) did it give?
A: 40
